Assay results from publication PMC10320249 (eBioMedicine, 2023).

B1: daratumumab (antibody, V domains shown)
VH: EVQLLESGGGLVQPGGSLRLSCAVSGFTFNSFAMSWVRQAPGKGLEWVSAISGSGGGTYYADSVKGRFTISRDNSKNTLYLQMNSLRAEDTAVYFCAKDKILWFGEPVFDYWGQGTLVTVSS
VL: not shown
B2: HexaBody-CD38 (GEN3014), hexamerization-enhanced human IgG1 with the E430G Fc mutation (antibody, V domains shown)
VH: QVQLVQSGAEVKKPGSSVKVSCKAFGGTFSSYAISWVRQAPGQGLEWMGRIIRFLGIANYAQKFQGRVTLIADKSTNTAYMELSSLRSEDTAVYYCAGEPGERDPDAVDIWGQGTMVTVSS
VL: DIQMTQSPSSLSASVGDRVTITCRASQGIRSWLAWYQQKPEKAPKSLIYAASSLQSGVPSRFSGSGSGTDFTLTISSLQPEDFATYYCQQYNSYPLTFGGGTKVEIK

Columns and labels:
[1] = target: recombinant human CD38 (soluble CD38) (Homo sapiens, UniProt P28907); assay: BLI
[2] = target: CD38 expressed on the plasma membrane of tumour cell lines (Homo sapiens, UniProt P28907); assay: cell-based or functional assay

Row | Binder | Kd [1] [nM] | CD38 cyclase activity on Daudi cells, EC50 [2] [µg/mL] | CD38 hydrolase activity on Daudi cells, EC50 [2] [µg/mL] | CD38 cyclase activity on Daudi cells (NGD+ to cGDPR), EC50 [2] [µg/mL] | CD38 hydrolase activity on Daudi cells (ε-NAD+ to ε-ADPR), EC50 [2] [µg/mL]
1 | B1 | 3.9 | 0.179 | 0.028 |  | 
2 | B2 | 1.1 |  |  | 0.419 | 0.335
